{"source": "paper PMC11878792", "about": "“Structural basis for aminoacylation of cellular modified tRNA^Lys3 by human lysyl-tRNA synthetase” (Nucleic Acids Research, 2025)", "biological_target": "T1, human lysyl-tRNA synthetase (h-LysRS), wild type, full length (human, UniProt Q15046 1-597)", "T1 construct": "Human lysyl-tRNA synthetase (LysRS), full length, wild type; printed residue numbers (NTD 1-65, S207, linker 208-220) fit the cytosolic form; Dimer in the cryo-EM reconstructions; No removal of the His tag is described; also called wt LysRS; wt h-LysRS; source: E. coli BL21 (DE3), purified (PEI and ammonium sulfate precipitation, Ni-NTA, hydroxyapatite)", "T1 sequence (Q15046 whole entry)": "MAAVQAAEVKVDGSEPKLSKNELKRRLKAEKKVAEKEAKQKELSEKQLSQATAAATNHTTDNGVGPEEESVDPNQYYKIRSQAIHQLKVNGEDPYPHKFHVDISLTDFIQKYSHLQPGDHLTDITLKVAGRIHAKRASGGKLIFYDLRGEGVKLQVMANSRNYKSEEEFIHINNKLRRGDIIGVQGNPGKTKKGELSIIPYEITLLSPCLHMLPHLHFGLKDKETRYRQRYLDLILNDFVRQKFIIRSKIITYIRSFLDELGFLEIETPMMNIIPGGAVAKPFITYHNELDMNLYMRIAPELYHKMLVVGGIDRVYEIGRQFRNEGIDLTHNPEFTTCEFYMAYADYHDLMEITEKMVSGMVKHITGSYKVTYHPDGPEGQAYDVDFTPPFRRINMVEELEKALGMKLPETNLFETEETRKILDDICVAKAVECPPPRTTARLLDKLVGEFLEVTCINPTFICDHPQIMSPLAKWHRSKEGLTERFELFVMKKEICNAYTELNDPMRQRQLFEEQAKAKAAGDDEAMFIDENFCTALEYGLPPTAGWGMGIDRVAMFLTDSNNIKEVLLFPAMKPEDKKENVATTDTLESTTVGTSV", "experiment": "cryo-EM structure; 10 uM h-LysRS-tRNALys3 (cellular modified, 1:1), 100 uM AIMP2-N36, 2.5 mM L-lysine, 2 mM AMP; complex formed 60 min at 4°C; 0.075% CHAPSO added before freezing", "conditions": "both partners purified", "data": [{"binder": "MPMYQVKPYHGGGAPLRVELPTCMYRLPNVHGRSYG (also called AIMP2 peptide; p38; source: synthetic peptide, bought: Biosynth)", "note": "[AIMP2-N36 peptide (LysRS interacting N-terminal region of AIMP2)]", "values": [{"measurement": "stoichiometry N", "result": 2, "unit": "copies per LysRS dimer"}]}]}
